Source: paper PMC9301129

B1: UNC93B1: N272Q (protein)
parent chain: MEVEPPLYPVAGAAGPQGDEDRHGVPDGPEAPLDELVGAYPNYNEEEEERRYYRRKRLGVVKNVLAASTGVTLTYGVYLGLLQMQLILHYDETYREVKYGNMGLPDIDSKMLMGINVTPIAALLYTPVLIRFFGTKWMMFLAVGIYALFVSTNYWERYYTLVPSAVALGMAIVPLWASMGNYITRMSQKYYEYSHYKEQDEQGPQQRPPRGSHAPYLLVFQAIFYSFFHLSFACAQLPMIYFLNNYLYDLNHTLINVQSCGTKSQGILNGFNKTVLRTLPRSKNLIVVESVLMAVAFLAMLMVLGLCGAAYRPTEEIDLRSVGWGNIFQLPFKHVRDFRLRHLVPFFIYSGFEVLFACTGFALGYGVCSMGLERLAYLLIAYSLGASASSVLGLLGLWLPRSVPLVAGAGLHLLLTLSLFFWAPAPRVLQHSWIFYFVAALWGVGSALNKTGLSTLLGILYEDKERQDFIFTIYHWWQAVAIFVVYLGSSLPMKAKLAVLLVTLVAAAASYLWMEQKLQQGLVPRQPRIPKPQHKVRGYRYLEEDNSDESDMEGEQGQGDCAEDEAPQAGPLGAEPAGPCRKPCPYEQALGGDGPEEQ
B2: UNC93B1: N251Q (protein)
parent chain: B1 parent chain
B3: UNC93B1: N251Q/N272Q (protein)
parent chain: B1 parent chain

Columns and labels:
Details in all cases: glycan lost; control: UNC93B1(WT)
[1] = TLR9 co-IP after CpG DNA, anti-MyD88 blot
[2] = cycloheximide chase, anti-GFP blot, UNC93B1 KO iBMDM
[3] = cycloheximide chase, anti-myc blot, full-length and cleaved TLR9
[4] = blot of TLR9 in isolated phagosomes
[5] = confocal microscopy, colocalisation with CD63, KO BMDC
[6] = streptavidin pull-down, anti-myc blot, KO iBMDM
[7] = confocal microscopy, TLR9-GFP with CD63-cherry, KO BMDC

Protein	other: MyD88 recruitment to TLR9 [1]	degradation_or_half_life [2]	other: stability and processing of client TLR9 [3]	other: TLR9 trafficking to phagosomes [4]	localisation_or_trafficking [5]	other: CpG DNA binding by client TLR9 [6]	other: endosomal localisation of client TLR9 [7]
B1	decreases	no change	no change	no change	no change	no change	no change
B2	no change	no change	no change	–	no change	no change	no change
B3	decreases	–	–	–	–	–	–
